Positions count from the first letter of the chain named.

Assay [1] addresses T1, NY-ESO-1 peptide on HLA-A*02:01 (human).
T1 peptide: SLLMWITQC
The experiment in a line: multimer staining.

In assay [2] the target is T1, NY-ESO-1 peptide on HLA-A*02:01. The experiment in a line: activation reporter or marker. On the procedure:
NY7 variant TCRs isolated by the work flow above were then functionally tested for potency and specificity. TCRs were expressed in Jurkat cells using a lentivirus vector, and TCR-expressing Jurkat cells were co-cultured with T2 cells and a varying dose of the NY-ESO-1 peptide. Activation was measured by luminescence using an NFAT-Luciferase reporter.

B1: NY7JSY (TCR, V domains shown)
Valpha: QKEVEQNSGPLSVPEGAIASLNCTYSDRGSQSFFWYRQYSGKSPELIMFIYSNGDKEDGRFTAQLNKASQYVSLLIRDSQPSDSATYLCAVMRAGGFKTIFGAGTRLFVKA
Vbeta: DSGVTQTPKHLITATGQRVTLRCSPRSGDLSVYWYQQSLDQGLQFLIQYYNGEERAKGNILERFSAQQFPDLHSELNLSSLELGDSALYFCASSVVDGEQYFGPGTRLTVT
Regarding B1, the binding result in assay [1] is reported as “recognises”.

B2: NY7 variant, Table A TCR ID 5 (TCR, V domains shown)
Valpha: B1 Valpha with G29W
Vbeta: B1 Vbeta
B2: the binding result in assay [2] is listed as “recognises”.

Source of the values: patent US20230287080A1 (published 2023).
